The record followed here is patent US12709641B2, “Tau binding compounds” (VOYAGER THERAPEUTICS, INC., dated 2026).

No end group written: not given here.

For experiment [1], the target named is iPHF (Homo sapiens (Human), UniProt P10636-8). The experiment is described as follows: Octet, antibody on biosensor tips. As for the experimental part:
Anti-human tau antibodies were assessed for affinity for iPHF by Octet (ForteBio, Menlo Park, CA) analysis. Recombinant mouse IgG antibodies were prepared with clone-specific variable domain pairs selected from those presented in Table 3 and mouse IgG1 constant domains. Candidate antibodies were immobilized on biosensor tips (ForteBio) in kinetic buffer (ForteBio). Biosensor tips were then washed before introduction of a solution of iPHF in kinetic buffer for analysis of association and dissociation with candidate antibodies. Affinity measurements (K_D) were obtained using Data Analysis HT version 11.1 and corrected for background and high-frequency noise.
Background: In BLI a coated tip is dipped into the sample, and binding shifts an interference pattern.

Experiment [2] has as its target T1, enriched paired helical filament tau protein (ePHF) (human, phosphorylated residues of pathological tau, sites not stated). The experiment is described as follows: follow up analysis, method not stated.
The target in experiment [3] is T2, peptides corresponding with residues 413-430 of human tau (human, also: biotin, position not given here, phosphorylated residues, sites not given here).
T2 peptide: STGSIDMVDSPQLATLAD
The experiment can be described thus: Pepscan biotinylated peptides, BLI or colorimetric detection. As to the method:
(§1) Recombinant mouse IgG antibodies were prepared with clone-specific variable domain pairs selected from those presented in Table 3 and mouse IgG1 constant domains. Epitope analysis was carried out with different anti-tau antibodies using a peptide scanning approach (e.g., see Verelst, J. et al. Front Mol Biosci. 2020 Mar. 31; 7:48). Libraries of overlapping synthetic biotinylated peptides corresponding to phosphorylated human tau (Pepscan, Lelystad, NL) were obtained and used to coat assay plate wells, each with individual library members. Recombinant mouse IgG antibodies were prepared with clone-specific variable domain pairs selected from those presented in Table 3 and mouse IgG1 constant domains. Antibody binding to peptides in each well was analyzed using colorimetric detection of peptide-antibody complexes with labeled secondary antibody or by associating biotinylated peptides with streptavidin coated biosensors in assay wells and assessing antibody binding by bio-layer interferometry (BLI)-based detection.

The target in experiment [4] is T1, enriched paired helical filament tau …. The experiment is described as follows: direct ELISA. As for the experimental part:
(§2) Variable domain nucleic acid sequences from antibodies obtained from immunizations described above were used to prepare recombinant mouse IgG antibodies. These candidate antibodies were analyzed for binding to ePHF and specificity for ePHF over wild type tau by direct ELISA.
(§3) For direct ePHF and wildtype tau ELISA, plates were first coated with ePHF or wild type tau. Antigen solutions were prepared in PBS and 50 μL were pipetted into each well. Plates were covered and incubated for one hour at 37° C. or overnight at 4° C. Plates were then washed and blocked by addition of 150 μl of blocking buffer to each well and incubated one hour at room temperature. Plates were then washed before addition of serially diluted candidate antibody samples prepared in blocking buffer. Detection of candidate antibody binding was carried out by washing plates and adding a solution of enzyme-labeled secondary antibody in blocking buffer to each well. Secondary antibody binding was detected by addition of substrate and spectrophotometric analysis of resulting reaction product.
Background: An ELISA detects its analyte on a solid surface through an enzyme-linked reagent.

Experiment [5] deals with wild type tau (Homo sapiens (Human), UniProt P10636-8). The experiment is described as follows: direct ELISA. As to the method: as §2, §3
The target of experiment [6] is T3, residues 57-72 of human tau (human, also: biotin, site not given here, phosphorylated residues, sites not given here).
T3 peptide: EEPGSETSDAKSTPTA
The experiment can be described thus: Pepscan biotinylated peptides, BLI or colorimetric detection. As for the experimental part:
as §1

The target of experiment [7] is T4, residues 175-191 of human tau (human, also: biotin, site not given here, phosphorylated residues, sites not given here).
T4 peptide: TPPAPKTPPSSGEPPKS
The experiment is described as above. As for the experimental part: as §1

The target in experiment [8] is T5, residues 383-400 of human tau (human, also: biotin, site not given here, phosphorylated residues, sites not given here).
T5 peptide: KAKTDHGAEIVYKSPVVS
The experiment is described as above. As for the experimental part: as §1

The target in experiment [9] is T6, residues 223-238 of human tau (human, also: biotin, site not given here, phosphorylated residues, sites not given here).
T6 peptide: PKKVAVVRTPPKSPSS
Described as above. As for the experimental part:
as §1

B1: V0022 (antibody, V domains shown)
VH: QVQLQQPGTELVKPGSSVNLSCKASGFTFTRYWMHWVKERPGHGLEWIGNINPNNGGTDFNEKFKNKATLTVHKSSTTVFIQLSSLTSEDSAVYYCARGTGTGAMDYWGQGTSVTVSS
VL: DVVMTQTPLSLPVSLGDQASISCRSSQSLVHNNGITYLYWYLQKPGQSPKLLIYRVSNRFSGVPDRFGGSGSGTDFTLKISRVEAEDLGVYFCFQGTHVPRTFGGGTKLEIK
B1: the results for the Kd in experiment [1] and in experiment [3] were 0.3 nM and 0.306 nM, respectively. Moreover, the “selectivity for ePHF over wild type tau” value in experiment [2] was over 100 fold. For the same molecule, the EC50 (commonly the midpoint of the concentration-response curve) in [4] is 0.07 nM.

B2: V0024 (antibody, V domains shown)
VH: QVQLQQPGTELVKPGASVKLSCKASGYTFTRFWMHWVKQRPGQGLEWIGNINPNNGGTDNNERFKSKATLTVDRSSSTAYMQLSSLTSEDSAVYYCARGTGTGAMDYWGQGTSVTVSS
VL: DVVMTQTPLSLPVSLGDQASISCRSSQSLVHSNGNTHLYWYLQKPGQSPKLLIYRVSSRFSGVPDRFSGSGSGTDFTLKISRVEAEDLGVYFCFQGTHVPRTFGGGTKLEIK
Consider B2, for which the Kd (as a rule, the free concentration of one partner at which half of the binding sites on the other are occupied at equilibrium, for simple one-to-one binding) in experiment [3] came out at 0.225 nM.

B3: V0023 (antibody, V domains shown)
VH: QVQLQQPGTELVKPGASVKLSCKASGYTFTIFWMHWVKQRPGHGLEWIGKINPNNGGGDYNEKFKSKATLTVDKSSTTAYLQLSSLTSEDSAVYYCARGTGTGAMDYWGQGTSVTVSS
VL: DVVMTQTPLSLPVSLGDHASISCRSSQSLVHSNGITHLYWYLQRPGQTPKLLIYRVSNRFSGVPDRFSGSGSGTDFTLKISSVEAEDLGVYFCFQGTHVPRTFGGGTKLEIE
Consider B3, for which the Kd in experiment [1] came to 4 nM; in experiment [3], 0.207 nM. The “selectivity for ePHF over wild type tau” value in experiment [2] was over 100 fold. Also, in experiment [4], the midpoint of the response, the EC50, lay at 0.11 nM.

B4: V0033 (antibody, V domains shown)
VH: EVQLQQSGAELVRPGSSVKMSCKTSGYTFTSYGINWVKQRPGQGLEWIGYIYIGNGHTEYNEKFEGKATLTSDTSSSTAYMQLSSLTSEDSAIYFCAGTGTLFDYWGQGTTLTVSS
VL: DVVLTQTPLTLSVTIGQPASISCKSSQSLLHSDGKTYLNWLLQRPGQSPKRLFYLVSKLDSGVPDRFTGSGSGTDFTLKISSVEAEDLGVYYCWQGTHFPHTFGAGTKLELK
As for B4, in experiment [5], a half-maximal effect (EC50) was put at 0.342 nM.

B5: V0035 (antibody, V domains shown)
VH: EAQLQQSGAELVRPGSSVKMSCKTSGYTFTSYGINWVKQRPGQGLEWIGYIYIRNGNTAYNEKFKGKATVTSDTSSSTVYMQLSSLTSEDSAIYFCAGTGTSFTYWGQGTLVTVSA
VL: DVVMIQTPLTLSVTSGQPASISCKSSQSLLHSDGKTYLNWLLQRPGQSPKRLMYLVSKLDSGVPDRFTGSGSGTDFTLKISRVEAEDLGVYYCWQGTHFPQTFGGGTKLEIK
Regarding B5, the EC50 was 0.315 nM in experiment [4] and 0.169 nM in experiment [5].

B6: V0034 (antibody, V domains shown)
VH: EVQLQQSGAELVRPGSSVKMSCKTSGYTFTSYGINWVKQRPGQGLEWVGYIYIRDGNTAYNEKFKGKATVTSDTSSSTVYMQLSSLTSEDSAIYFCAGTGTSFAYWGQGTLVTVSA
VL: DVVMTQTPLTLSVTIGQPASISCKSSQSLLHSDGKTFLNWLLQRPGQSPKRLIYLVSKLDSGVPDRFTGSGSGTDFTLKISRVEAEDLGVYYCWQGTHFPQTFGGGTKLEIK
As for B6, the concentration for a half-maximal effect (EC50) in [4] amounted to 0.351 nM; in [5] it was 0.14 nM.

B7: V0009 (antibody, V domains shown)
VH: EVQLVESGGALVQPGGSLSLSCAASGFTFTDYYMSWVRQPPGKALEWLALIRNKAKGFTTEYSASVKGRFTISRDNSQSILLFQMNDLRADDSATYYCVRDINYWGQGTTLTVSS
VL: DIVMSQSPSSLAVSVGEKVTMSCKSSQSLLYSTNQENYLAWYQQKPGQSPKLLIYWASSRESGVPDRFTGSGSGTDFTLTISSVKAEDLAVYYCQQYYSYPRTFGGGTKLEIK
For B7, the Kd in experiment [1] worked out at 0.2 nM. Besides, the “selectivity for ePHF over wild type tau” value in experiment [2] was over 100 fold. The EC50 in experiment [4] was found to be 0.038 nM.

B8: V0052 (antibody, V domains shown)
VH: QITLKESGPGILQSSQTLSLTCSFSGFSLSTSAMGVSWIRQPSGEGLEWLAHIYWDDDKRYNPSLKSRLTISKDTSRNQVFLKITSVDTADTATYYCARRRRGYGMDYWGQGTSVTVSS
VL: SIVMTQTPKFLLVSAGDRVTITCKASQSVSNDVAWYQQKPGQSPKLLIYYASNRCTGVPDRFTGSGYGTDFTFTISTVQAEDLAVYFCQQDYRSPLTFGAGTKLELK
As for B8, the Kd turned out to be 0.6 nM in [1]; 14 nM in experiment [6]; 7.24 nM in [7]; 12.6 nM in experiment [8]; 2.08 nM in experiment [9]. Also, in experiment [2], the “selectivity for ePHF over wild type tau” value was over 100 fold.

B9: V0004 (antibody, V domains shown)
VH: QVQLQQPGAELVKPGASVKLSCKASDYTFTNYWMHWVKQRPGRGLEWIGRIDPNSGGTRYNEKFKNKATLTVDKPSSTAYMHLSSLTSEDSAVYYCAGDFDVWGTGTTVTVSS
VL: DIQMTQSPASLSASVGETVTITCRASGNIHNYLAWYQQRQGKSPQLLVYNAKTLPDGVPSRFSGSGSGTQYSLKINSLQPEDFGSYCCQHFWSTPLTFGAGTKLELK
B9 came in with a dissociation constant (Kd) in [1] of 20 nM. Also, the “selectivity for ePHF over wild type tau” value in experiment [2] amounted to 100 fold. In [4], this molecule gave a 50% effective concentration (EC50) of 0.083 nM.

B10: V00016 (antibody, V domains shown)
VH: EVQLQQSGAELVKPGASVKLSCTASGFNIKDYYIHWVKQRTEQGLEWIGRIDPEDGETKYAPKFQGKATIAADTSSNTAYLHLNSLTSEDTAVYYCAREFSYAMDYWGQGTSVTVSS
VL: NIMMTQSPSSLAVSAGEKVTMSCKSSQSVLYSSNQKNYLAWYQQKPGQSPKLLIYWASTRESGVPDRFTGSGSGTDFTLTISSVQAEDLAVYYCHQYLSSRTFGGGTKLEIK
The molecule B10 had a concentration giving a half-maximal response (EC50) in experiment [5] of 0.141 nM.

B11: V0026 (antibody, V domains shown)
VH: QVQLQQSGPELVKPGASVKISCKASGYSFTDYYINWVKQRPGQGLEWIGWIFPGSDSTYYNEKFKGKATLTVDKSSSTASMLLSSLTSEDSAVYFCARPTVVARDYAMDYWGQGTSVTVSS
VL: DVLMTQTPLSLPVSLGDQASISCRSSQSIVYSNGNTYLEWYLQKPGQSPKLLIYKVSNRFSGVPDRFSGSGSGTDFTLKISRVEAEDLGVYYCFQGSHVPYTFGGGTKLEIK
On to B11, for which the equilibrium dissociation constant (Kd) in experiment [1] was 0.7 nM. This molecule also yielded an EC50 in experiment [4] of 5.61 nM.

B12: V0027 (antibody, V domains shown)
VH: QVQLQQSGPELVKPGASVKISCKASGYTFTEYYLNWMKQRPGQGLEWIGWIFPGRGSTNYNEKFKGKATLTVDKSSSTAYMLLSSLTSEDSAVYFCARPTIVARDYAMDYWGQGTSVTVSS
VL: DVLMTQTPLSLPVSLGDQASISCRSSQSIVHRNGNTYLEWYLQKPGQSPKLLIYKVSNRFSGVPDRFSGSGSGTDFTLKISRVEAEDLGVYYCFQGSHVPFTFGSGTKLEIK
B12: in experiment [1], binding was put at a Kd of 10.5 nM. In [4], the response was half-maximal at 3.51 nM (EC50).

B13: V0032 (antibody, V domains shown)
VH: QVQLKQSGAELVRPGASVKLSCKTSGYTFTDYYIKWVKQRPGQGLEWIARIYPGSGNTYYNEKFKGKATLTAEKSSSTAYMQLSSLTSEDSAVYFCARPAYYSKDYAMEYWGQGTSVTVSS
VL: DVLMTQTPLSLPVSLGDQASISCRSSQSIVYTNGNTYLEWYLQKPGQSPKLLIYKVSNRFSGVPDRFSGSGSGTDFTLKISRVEAEDLGVYYCFQGSHVPYTFGGGTKLEIK
On to B13, for which, in experiment [1], the dissociation constant (Kd) turned out to be 17.5 nM. It took 14.3 nM to reach a half-maximal effect in [4] (EC50).

B14: V0031 (antibody, V domains shown)
VH: QVQLQQPGTELVKPGASVKLSCKASGYTFTSYWMHWVKQRPGQGLEWIGNIYPSNGGTYYNEKFKSKATLTVDKSSSTAYMQLSSLTSEDSAVYYCARSSVVGRDYAMDYWGQGTSVTVSS
VL: DVLMTQTPLSLPVSLGDQASIACRSSQSIVHSNGNTYLEWYLQKPGQSPELLIYKVSNRFSGVPDRFSGSGSGTDFTLKISRVEAEDLGVYYCFQGSHVPYTFGGGTKLEIK
For the molecule B14, the equilibrium dissociation constant (Kd) in [1] worked out at 57.7 nM. This molecule gave an EC50 in [4] of 8.8 nM.

B15: V00018 (antibody, V domains shown)
VH: QVQLQQPGADLVRPGSSVKLSCKASGYTFTRSWMHWVKQRPIEGLEWIGNIDPSDSEAHYNQKFKDKATLTVDKFSNTAYMQLSSLTSEDSAVYYCARWDDFYVAYWGQGTLVTVSA
VL: DIVLTQSPASLAVSLGQRATISCRASKSVSTSGYSYIHWYQQKPGQPPKLLIYLASNLESGVPARFSGSGSGTDFTLNIHPVEEEDAATYYCQHSRELPWTFGGGTKLEIK
For the molecule B15, the EC50 in experiment [4] was determined as 0.718 nM; in [5], 0.238 nM.

B16: V00019 (antibody, V domains shown)
VH: QVQLQQPGAALVRPGSSVKLSCKASGYTFTSSWMHWVKQRPIQGLEWIGNIDPSDGETHYNQKFKDKATLTVDKSSNTAYMQLSSLTSEDSAVYYCARWDDYYVAYWGQGTLVTVSA
VL: DIVLTQSPASLAVSLGQRATISCRASKSVSTSGYSYMHWYQQKPGQPPKLLIYLASNLESGVPARFSGSGSGTDFTLNIHPVEEEDAATYYCLHSRELPWTFGGGTKLEIK
B16 yielded a half-maximal effective concentration (EC50) in experiment [5] of 0.285 nM.
